Usually stoichiometry N stands for the number of molecules, sites or subunits per partner or assembly.

Where “and” joins values, the source holds several entries; their conditions need not be identical. Equal values may be shown once.

Drawing on publication doi:10.1101/487769, this text covers stoichiometry N for one substance.

The target of this assay is Hfq-FLAG (Yersinia pestis Hfq with C-terminal 3 x Flag tag) (Yersinia pestis). The experiment in a line: native gel or EMSA. On the technique in general: In EMSA bound probe runs differently from free probe, usually more slowly.

Regarding “Hfq-FLAG (Yersinia pestis Hfq with C-terminal 3 x Flag tag) (natural protein)”, the stoichiometry N is 3 and 6.
